Data published in doi:10.1101/2021.08.20.457142.

B1: MKK7 D-site peptide (second D-site) / JNK1 alpha1 (MAPK8 isoform 1) L198A, full length (parent complex)
chain 1: SQPQRPRPTLQLPLANEAFEQP
chain 2: MSRSKRDNNFYSVEIGDSTFTVLKRYQNLKPIGSGAQGIVCAAYDAILERNVAIKKLSRPFQNQTHAKRAYRELVLMKCVNHKNIIGLLNVFTPQKSLEEFQDVYIVMELMDANLCQVIQMELDHERMSYLLYQMLCGIKHLHSAGIIHRDLKPSNIVVKSDCTLKILDFGLARTAGTSFMMTPYVVTRYYRAPEVIAGMGYKENVDLWSVGCIMGEMVCHKILFPGRDYIDQWNKVIEQLGTPCPEFMKKLQPTVRTYVENRPKYAGYSFEKLFPDVLFPADSEHNKLKASQARDLLSKMLVIDASKRISVDEALQHPYINVWYDPSEAEAPPPKIPDKQLDEREHTIEEWKELIYKEVMDLEERTKNGVIRGQPSPLAQVQQ

Variants of: B1
chain 1 Q4M was tested, and the screen value was 1.12 Z-score of the enrichment rate within one screen of 711 sequences.
In the case of chain 1 Q4H, the screen value is reported as 1.59 Z-score of the enrichment rate within one screen of 711 sequences.
For chain 1 Q4E, the screen value was 1.4 Z-score of the enrichment rate within one screen of 711 sequences.
For chain 1 Q4A, the screen value was 1.48 Z-score of the enrichment rate within one screen of 711 sequences.
For chain 1 Q4G, the screen value was 1.26 Z-score of the enrichment rate within one screen of 711 sequences.
For chain 1 Q4T, the screen value was 1.45 Z-score of the enrichment rate within one screen of 711 sequences.
For chain 1 Q4R, the screen value was 2 Z-score of the enrichment rate within one screen of 711 sequences.
chain 1 T9A, chain 1 Q11A was tested, and the screen value was 1.19 Z-score of the enrichment rate within one screen of 711 sequences.
With chain 1 L12A, chain 1 N16A the screen value was -0.599 Z-score of the enrichment rate within one screen of 711 sequences.
With chain 1 P3A, chain 1 Q4A the screen value was 1.61 Z-score of the enrichment rate within one screen of 711 sequences.
For chain 1 Q11A, chain 1 N16A, the screen value was 1.16 Z-score of the enrichment rate within one screen of 711 sequences.
chain 1 Q4A, chain 1 L12A was tested, and the screen value was -0.309 Z-score of the enrichment rate within one screen of 711 sequences.
chain 1 Q4A, chain 1 L14A was tested, and the screen value was 0.562 Z-score of the enrichment rate within one screen of 711 sequences.
With chain 1 Q4A, chain 1 Q11A the screen value was 1.43 Z-score of the enrichment rate within one screen of 711 sequences.
In the case of chain 1 P13I, the screen value is reported as 0.957 Z-score of the enrichment rate within one screen of 711 sequences.
With chain 1 P13T the screen value was 1.03 Z-score of the enrichment rate within one screen of 711 sequences.
In the case of chain 1 P13E, the screen value is reported as 1.34 Z-score of the enrichment rate within one screen of 711 sequences.
chain 1 P13W was tested, and the screen value was 1.26 Z-score of the enrichment rate within one screen of 711 sequences.
In the case of chain 1 P13F, the screen value is reported as 1.62 Z-score of the enrichment rate within one screen of 711 sequences.
For chain 1 P13Y, the screen value was 1.41 Z-score of the enrichment rate within one screen of 711 sequences.
chain 1 P13R was tested, and the screen value was 1.24 Z-score of the enrichment rate within one screen of 711 sequences.
chain 1 P13A was tested, and the screen value was 1.14 Z-score of the enrichment rate within one screen of 711 sequences.
For chain 1 N16K, the screen value was 1.7 Z-score of the enrichment rate within one screen of 711 sequences.
chain 1 N16I was tested, and the screen value was 1.55 Z-score of the enrichment rate within one screen of 711 sequences.
chain 1 N16Y was tested, and the screen value was 1.82 Z-score of the enrichment rate within one screen of 711 sequences.
chain 1 N16D was tested, and the screen value was 1.03 Z-score of the enrichment rate within one screen of 711 sequences.
In the case of chain 1 N16R, the screen value is reported as 1.4 Z-score of the enrichment rate within one screen of 711 sequences.
In the case of chain 1 N16M, the screen value is reported as 1.27 Z-score of the enrichment rate within one screen of 711 sequences.
For chain 1 N16F, the screen value was 1.8 Z-score of the enrichment rate within one screen of 711 sequences.
chain 1 R7D was tested, and the screen value was -0.584 Z-score of the enrichment rate within one screen of 711 sequences.
With chain 1 R7S the screen value was -0.155 Z-score of the enrichment rate within one screen of 711 sequences.
chain 1 R7Y was tested, and the screen value was 0.245 Z-score of the enrichment rate within one screen of 711 sequences.
chain 1 R7T was tested, and the screen value was 0.638 Z-score of the enrichment rate within one screen of 711 sequences.
With chain 1 R7C the screen value was 0.232 Z-score of the enrichment rate within one screen of 711 sequences.
With chain 1 R7W the screen value was 0.391 Z-score of the enrichment rate within one screen of 711 sequences.
For chain 1 R7H, the screen value was 0.435 Z-score of the enrichment rate within one screen of 711 sequences.
With chain 1 Q4A, chain 1 T9A the screen value was 1.32 Z-score of the enrichment rate within one screen of 711 sequences.
With chain 1 P3A, chain 1 R7A the screen value was 0.212 Z-score of the enrichment rate within one screen of 711 sequences.
With chain 1 Q11A, chain 1 L14A the screen value was 0.716 Z-score of the enrichment rate within one screen of 711 sequences.
With chain 1 R7A, chain 1 P13A the screen value was 0.166 Z-score of the enrichment rate within one screen of 711 sequences.
In the case of chain 1 P6A, chain 1 P8A, the screen value is reported as 0.889 Z-score of the enrichment rate within one screen of 711 sequences.
With chain 1 P6A, chain 1 N16A the screen value was 1.19 Z-score of the enrichment rate within one screen of 711 sequences.
For chain 1 L10A, chain 1 L12A, the screen value was -0.511 Z-score of the enrichment rate within one screen of 711 sequences.
For chain 1 T9P, the screen value was 0.775 Z-score of the enrichment rate within one screen of 711 sequences.
For chain 1 T9N, the screen value was 1.85 Z-score of the enrichment rate within one screen of 711 sequences.
chain 1 T9R was tested, and the screen value was 1.59 Z-score of the enrichment rate within one screen of 711 sequences.
With chain 1 T9S the screen value was 1.4 Z-score of the enrichment rate within one screen of 711 sequences.
In the case of chain 1 T9I, the screen value is reported as 1.93 Z-score of the enrichment rate within one screen of 711 sequences.
For chain 1 T9K, the screen value was 1.65 Z-score of the enrichment rate within one screen of 711 sequences.
chain 1 T9D was tested, and the screen value was 0.933 Z-score of the enrichment rate within one screen of 711 sequences.
With chain 1 T9A the screen value was 0.998 Z-score of the enrichment rate within one screen of 711 sequences.
With chain 1 T9G the screen value was 0.628 Z-score of the enrichment rate within one screen of 711 sequences.
In the case of chain 1 T9V, the screen value is reported as 1.12 Z-score of the enrichment rate within one screen of 711 sequences.
In the case of chain 1 P3A, chain 1 P13A, the screen value is reported as 1.51 Z-score of the enrichment rate within one screen of 711 sequences.
For chain 1 P6A, chain 1 T9A, the screen value was 1.16 Z-score of the enrichment rate within one screen of 711 sequences.
For chain 1 P8A, chain 1 L12A, the screen value was -0.717 Z-score of the enrichment rate within one screen of 711 sequences.
chain 1 R5Q was tested, and the screen value was 1.01 Z-score of the enrichment rate within one screen of 711 sequences.
In the case of chain 1 R5M, the screen value is reported as 0.716 Z-score of the enrichment rate within one screen of 711 sequences.
chain 1 R5G was tested, and the screen value was 0.242 Z-score of the enrichment rate within one screen of 711 sequences.
For chain 1 R5K, the screen value was 1.36 Z-score of the enrichment rate within one screen of 711 sequences.
For chain 1 R5F, the screen value was 1.12 Z-score of the enrichment rate within one screen of 711 sequences.
With chain 1 R5N the screen value was 0.604 Z-score of the enrichment rate within one screen of 711 sequences.
For chain 1 R5H, the screen value was 0.688 Z-score of the enrichment rate within one screen of 711 sequences.
With chain 1 R5T the screen value was 1.01 Z-score of the enrichment rate within one screen of 711 sequences.
chain 1 R5C was tested, and the screen value was 0.699 Z-score of the enrichment rate within one screen of 711 sequences.
For chain 1 L12F, the screen value was 0.226 Z-score of the enrichment rate within one screen of 711 sequences.
In the case of chain 1 L12K, the screen value is reported as -0.431 Z-score of the enrichment rate within one screen of 711 sequences.
For chain 1 L12Y, the screen value was -0.861 Z-score of the enrichment rate within one screen of 711 sequences.
With chain 1 L12H the screen value was -0.33 Z-score of the enrichment rate within one screen of 711 sequences.
In the case of chain 1 L12D, the screen value is reported as -0.686 Z-score of the enrichment rate within one screen of 711 sequences.
For chain 1 L12T, the screen value was -0.304 Z-score of the enrichment rate within one screen of 711 sequences.
For chain 1 L12M, the screen value was 0.011 Z-score of the enrichment rate within one screen of 711 sequences.
In the case of chain 1 L12R, the screen value is reported as -0.521 Z-score of the enrichment rate within one screen of 711 sequences.
For chain 1 L12W, the screen value was 0.774 Z-score of the enrichment rate within one screen of 711 sequences.
chain 1 L12S was tested, and the screen value was -0.194 Z-score of the enrichment rate within one screen of 711 sequences.
